# According to the NTF2 design screens of Basanta et al. (2020):
# Test: protease stability score; higher = more stable; yeast display proteolysis, trypsin and chymotrypsin;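 further: relative to predicted unfolded state with 0 unfolded-like and 1 meaning tenfold more protease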
row,Sequence,protease stability score
1,DEDEERMHWMVEVLLRMLETGNEEIVKRLVDPNARVHTEDHSSMGREEFSRFMLELAKRFDVFHDVELKHVEVQGEKIILDGKFHIEVNGRRNYLDIELIIIKIDGRWKIEEVRFH,1.25
2,SEEERESKEATKLHLDALRTGNEELLRHLFDPDVKVDVNGKHLHGWKLLTEVLQRMGVKHVELTDFRVYDGRIDLREKWDVDGKEIEVFIHARKFNGQWHTESIHIK,1.15
3,SEDEELVRRAVHRFIKLLETGDWDKIQNNVDPHVRLHVDGVDFIGRELFIHWVDRVKGMRHDIRDVRIEFHGDKAHIDMVTELEIGDKRRETRVHLVMRKINGRWIIESEEYRII,2.64
4,DEKEEVLEKLDRLVMEAMETGDWELITKNFDPNTRITINGRELIGRAEWHRFLEEMRHSIKDYRIRSKREYDGRIEVDTESHFIVNIDGKRIEYETRTHVIMTKIDGKWLFTSVEVR,1.97
5,TDLEELFDYAIDLLRSLLLTGDEHMSVRLADPNTKLEVNGRYIHGREKFREWFRWFLEHLRFDHLHIHSVETQGDYAFMDSRVHLRYGDKVIEFITHQIVLKFDGRWYLHSMEIR,0.587
6,SEIERDAREFLRVLLEHLHTGDEDDLARLADPHVLIDIDGREIVGRELFREIWHEMGVNHTEYKDLDIQGNKLHIHINVNVNGKVRSLRIVVRKVNGRWFIEREHYE,1.52
7,SQDERDVKKFVDLYERTVETGNEEDMERLMDPHVRMEVGDKHEHGRHIVIRVLHELGADHVDIHHVNVQGEKIHIHGRLHVDGRIHHVEIHAKKVNGKWIMKLVIIR,1.11
8,DEDTENVLRALEQFDEKLLTGDWRSLEELADPHVRIDINGQDIHGRETHSEHFRRIKNLKLEHLDVHSFTVIGNKVELDTEIIGEIDGRRRIFRVRMRILKIDGRWVLHSVEIG,1.46
9,DEHHETLKRMTDQTLHVIHTGDEETWNQLADPNTLIRIIFENREINIHGWHLVVRWLQHLHRELRIEIDIRDIEIQGNKVHVEGELHVHQGEKEINIRIIFHFIVVNGRLRDVTIDFR,1.3
10,SEEETFTEIAVKLLMHLWNTGDENELMRNFDPNARMDINGQEYHGREDIVRRLDEFKKRLGVERVHFELNDIRPVNGRADVDGIVIFNGQKLRVRHIVWKINGRWYLEEFEVR,1.44
11,SEEHEKTRRALELWIDVMKTGDPEHILRLLDPHTKIHQGEFELHGRHDAHRWLSRLGVERIHFELKDVRYFDGQILVDGVIFFNGRESRVNVVAMKVNGRWFVDSLEIQ,0.755
12,DEIEHMIHEIFERWIKAWLTGDWRTIEKLFDPDVRVEINGVEIIGRELMSKVLIRKYDEMRSRVKLESEHAQGDKAHFNVNIILHIGDKTIERRSRIHIRIYNGRIHEVRVEED,2.4
13,DEDDKEAEKALRDMVHSWVTGDEQKNQELADPHVRVIIGEFNFVGRDDLDKWLREIRIHNIEIKDIDVFDGKVELKGTLTIRIGDKEVRHEVDFYMVKINGRWHLHRIQVH,2.08
14,DDEERHASTIFELLMEVILTGDEDTFEELADPNTRFDINGREFHGREYMSHLKTQYDHWYLKHMHITSSEVQGNFAILNSETDYELEYGDKRVSFYERWHLFVLKVDGRWIIHSFRIN,0.985
15,HEDEEEQRLANEIFHKMIWTGDEERLKDLMDPHVRIDVNGREVHGMEEWLEHFLQFKNMKFRVHFRENRIIDGVARSRTELRIIFDGREYRIDLIVIAQKINGRWILRSIEIR,1.34
16,DEEQTQMEETVNVVLSAMRTGDEETSKKLADPNVKIRINGREFHGRDFYAHVILMFGIDHIEMRIERYEFQGEKLILRGRLRLEFNGKEETSDVIEIWWKVDGRWHLDNYYEN,1.37
17,TEDEKLSEDMTQHFIELLFTGDFDKISELADPNVRIHAENRTLVGRESFKRLMKKEIEFFKGARFHIEDLHIYDGRVDIHEIVSYGEFVIRRTIHSHKINGKWLETEVRLG,0.929
18,SEDEEMARRFFEHLLHLWRTGDEEILRNLVDPDTQMQIGDKHLHGRDAVEHMIRRIDHVEVRKVRMREIRVQGDYVVIHVELDGTQEVNGKRIEQHIEFTVFVHKVDGRWIWRSIYQI,1.37
19,DEKEEEYKEMIRIMVEYLETGNEEDMNRLLDPHTKTEYHQGDKSDEFHGREEFMRLWQELGIDHFRVRDVDIVDGRVRIESELIVGDKRFNSYFFLIVVNGRATSASIHVE,2.27
20,DEQEELSQLLAEIVIELTKTGDEHTLERLMDPHVRANINGVELHGRKKVREFLEEWLRRVKNVRLHIDDRTVQGEKIIVDGTWNVGDKSFRIEFIVIIINGRHTSFNVLDI,1.51
21,DEQEEHLHEMVRRFLHHFLTGDWKTLHRMFDPNARYHINGQDHVGREEINRFWREHWEHARIHDLRIKSVELFENRSHIIGHLDGNIDGKEVRTDVEIILVIVNGRVRYIEVRQH,1.52
22,DERHETEERFLRTLIHSHMTGDEESHFEMMDPHAKLIYNGKEIHGMEVLRKELEEWRKKLGANHSHITIDHVELQGNKAHFDVTIDLIVDGRVIRTRIHIDIEKVDGRWIITRVIVK,0.489
23,SEEEFFTEMALRIYIELFETGDEHLIERLADPNVIIDFNGREFIGREYFSRIFHFLRRHWRMRDVTLKDWRVFDGRLHMEVQLYGKVNGQETQRDTHLVSTKINGRWRIHSDKWD,1.25
24,TESEKEAHDAVKRSIDSWLTGDEHDMAELLDPNVRLEIGDKTFIGREEFVKWLKDVREKFKGVRLHIRDYRVHVVGDKVRVEIDIQEDYGDKFHDVTLVFILRKIDGRWHNQSVEVRIE,1.58
25,SEMDENIHEALKEEMHAWVTGDFDKIEHLLDPNTRVEQGEFIYHGRFFVEFVRRRVDHVFWHHVEIRHIENVDGRMIIDGIVDFEETAENHRHRHTIRTIIYLEKIDGKWYIRSLEVK,0.874
